Columns and labels:
[1] = biological target: T1, monkey (cyno) GPRC5D, on 293T cells (monkey (cyno)); experiment: FACS on 293T cells expressing monkey GPRC5D
T1 construct: whole, on cells; also called monkey GPRC5D
Source text: (§1) According to the method described in Example 4, the binding between the culture supernatant of the hybridoma cells and monkey GPRC5D was detected, except that the human GPRC5D-expressing cells were replaced with 293T cells expressing monkey GPRC5D (Kyinno, catalog number KC-1586).

[2] = biological target: T1, monkey (cyno) GPRC5D, on 293T cells; experiment: FACS on 293T cells expressing monkey (cyno) GPRC5D (run with 9D7(hz))
Description: (§2) 100 μl of FACS buffer was then added to each FACS tube for resuspension. 5 μl of PE-labeled, anti-murine Fc tagged secondary antibody (Biolegend, catalog number 409304) was added according to instructions, and incubated at 4° C. in the dark for 30 mins. Then 1 ml of FACS buffer was added, and centrifuged at 1200 rpm at room temperature for 5 mins. The supernatant was discarded followed by washing three times.
(§3) The experimental process was as described in Example 4. […] Control tube 1 (no antibody and secondary antibody, adding only cell suspension) and Control tube 2 (no antibody, adding only cell suspension and secondary antibody) were included.

[3] = biological target: T1, monkey (cyno) GPRC5D, on 293T cells; experiment: FACS on 293T cells expressing monkey (cyno) GPRC5D (run with 24F5(hz))
Description: as §2, §3

[4] = biological target: T1, monkey (cyno) GPRC5D, on 293T cells; experiment: FACS on 293T cells expressing monkey (cyno) GPRC5D (run with 6E97(hz))
Description: as §2, §3

[5] = biological target: T2, human GPRC5B, on 293T cells (human, UniProt Q9NZH0 29-403); experiment: FACS on 293T-GPRC5B cells, antibody at 2 µg/mL; control tubes 8.55 and 8.26
T2 construct: whole, on cells; also called 293T-GPRC5B
Description: as §2
(§4) The experimental process was as described in Example 4, cells expressing other members of G protein-coupled receptor class C group 5 as follows were used: 293T cells expressing human GPRC5A, 293T-GPRC5A (Kyinno, catalog number KC-1888), 293T cells expressing human GPRC5B, 293T-GPRC5B (Kyinno, catalog number KC-1854), and 293T cells expressing human GPRC5C, 293T-GPRC5C (Kyinno, catalog number KC-1889). […] Control tube 1 (no antibody and secondary antibody, adding only cell suspension) and Control tube 2 (no antibody, adding only cell suspension and secondary antibody) were included.

[6] = biological target: T3, human GPRC5C, on 293T cells (human, UniProt Q9NQ84 24-441); experiment: FACS on 293T-GPRC5C cells, antibody at 2 µg/mL; control tubes 8.86 and 8.73
T3 construct: whole, on cells; also called 293T-GPRC5C
Description: as §2, §4

[7] = biological target: T4, human GPRC5D (G protein-coupled receptor class C group 5 member D), on cells (human, UniProt Q9NZD1 1-345); experiment: FACS, hybridoma supernatant on MM1R cells
T4 construct: whole, on cells; also called hGPRC5D

[8] = biological target: T4, human GPRC5D (G protein-coupled …); experiment: FACS, hybridoma supernatant on OPM2 cells
[9] = biological target: T5, Nalm6 cells (NALM6, Kyinno, catalog number KC-0626); experiment: FACS, hybridoma supernatant on Nalm6 cells
T5 construct: Kept apart from human GPRC5D so that the low MFI values on this line are not laid to the GPRC5D pair

[10] = biological target: T4, human GPRC5D (G protein-coupled …); experiment: FACS, hybridoma supernatant on NCI-H929 cells
Description: as §2

[11] = biological target: T4, human GPRC5D (G protein-coupled …); experiment: FACS, hybridoma supernatant on 293T cells expressing human GPRC5D
Description: (§5) 293T cells expressing human GPRC5D as described above was prepared into a suspension at concentration of 1×10⁵ cells/ml in PBS containing 2% FBS.
(§6) 1 ml of FACS buffer was added to each FACS tube, centrifuged at 1200 rpm for 5 mins. The supernatant was discarded followed by washing three times. At the same time, control tube 1 (no supernatant of the culture and the secondary antibody mentioned below, adding only cell suspension) and control tube 2 (no supernatant of the culture, adding only cell suspension and the secondary antibody mentioned below) were included.
as §2

[12] = biological target: T4, human GPRC5D (G protein-coupled …); experiment: as above; remark: listed apart in the source
Description: as §5, §6, §2

[13] = biological target: T4, human GPRC5D (G protein-coupled …); experiment: as above; remark: listed apart in the source
Description: as §5, §6, §2

[14] = biological target: T1, monkey (cyno) GPRC5D, on 293T cells; experiment: FACS, hybridoma supernatant on 293T cells expressing monkey GPRC5D
Source text: as §1

[15] = biological target: T1, monkey (cyno) GPRC5D, on 293T cells; experiment: as above; remark: listed apart in the source
Source text: as §1

[16] = biological target: T4, human GPRC5D (G protein-coupled …); experiment: cell ELISA, hybridoma supernatant on fixed BXPC-3 cells expressing human GPRC5D
Description: BXPC-3 cells expressing human GPRC5D (Kyinno, catalog number KC-1717) were prepared into a suspension at concentration of 1×10⁵ cells/ml in PBS containing 2% FBS. The suspension was added to a 96-well plate at 100 μl/well and cultured overnight at 37° C. The wells were cleared of their contents and washed three times with washing solution. 80 μl of 4% tissue fixative (Beyotime, catalog number P0099) was added to each well followed by fixing at room temperature for 15 min, washing twice with PBS and drying. 250 μl of blocking solution containing 2% BSA was added to each well followed by incubation at 37° C. for 1 hr and washing three times with PBS. 50-100 μl of the supernatant of the hybridoma cell culture was added to each well. A positive control (adding serum from fusion mice), a negative control (adding serum from normal mice) and a blank control (adding culture medium) were included. The wells were incubated at 37° C. for 1-2 hrs, washed, and dried. Then, the enzyme-labeled secondary antibody, HRP-labeled goat anti-mouse IgG (SIGMA, catalog number A9044-2 ml) was added at dilution of 1:10000 and 50-100 μl/well. The wells were incubated at 37° C. for 1-2 hrs, washed, and dried. 50-100 μl of freshly prepared developing solution TMB was added to each well and incubated at 37° C. for 10-30 mins.
2 mol/L H₂SO₄ was added to terminate the reaction, and the OD value was read on an enzyme-linked immunosorbent reader.

[17] = biological target: T4, human GPRC5D (G protein-coupled …); experiment: FACS, hybridoma supernatant on 293T cells expressing human GPRC5D; remark: listed apart in the source
Description: as §5, §6, §2

T4 sequence (Q9NZD1 whole entry): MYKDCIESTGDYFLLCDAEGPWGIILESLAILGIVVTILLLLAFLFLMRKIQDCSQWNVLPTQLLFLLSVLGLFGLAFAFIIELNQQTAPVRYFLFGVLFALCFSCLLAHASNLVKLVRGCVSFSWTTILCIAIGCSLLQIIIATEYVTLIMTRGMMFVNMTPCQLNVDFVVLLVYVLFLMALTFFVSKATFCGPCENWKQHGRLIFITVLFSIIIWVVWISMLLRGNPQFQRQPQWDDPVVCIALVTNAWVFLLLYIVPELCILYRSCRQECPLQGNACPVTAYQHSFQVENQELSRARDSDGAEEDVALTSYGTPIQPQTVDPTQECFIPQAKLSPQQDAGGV
T2 sequence (Q9NZH0 29-403): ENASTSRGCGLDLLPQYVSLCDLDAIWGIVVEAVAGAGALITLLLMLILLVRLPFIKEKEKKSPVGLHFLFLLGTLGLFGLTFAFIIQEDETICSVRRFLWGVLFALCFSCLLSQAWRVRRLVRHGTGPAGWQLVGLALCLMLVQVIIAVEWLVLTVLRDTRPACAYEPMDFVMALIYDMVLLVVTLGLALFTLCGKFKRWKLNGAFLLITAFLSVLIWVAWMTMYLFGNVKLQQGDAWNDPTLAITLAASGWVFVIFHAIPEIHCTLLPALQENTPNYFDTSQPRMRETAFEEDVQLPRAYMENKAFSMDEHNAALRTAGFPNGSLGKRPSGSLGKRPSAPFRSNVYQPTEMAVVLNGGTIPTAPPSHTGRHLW
T3 sequence (Q9NQ84 24-441): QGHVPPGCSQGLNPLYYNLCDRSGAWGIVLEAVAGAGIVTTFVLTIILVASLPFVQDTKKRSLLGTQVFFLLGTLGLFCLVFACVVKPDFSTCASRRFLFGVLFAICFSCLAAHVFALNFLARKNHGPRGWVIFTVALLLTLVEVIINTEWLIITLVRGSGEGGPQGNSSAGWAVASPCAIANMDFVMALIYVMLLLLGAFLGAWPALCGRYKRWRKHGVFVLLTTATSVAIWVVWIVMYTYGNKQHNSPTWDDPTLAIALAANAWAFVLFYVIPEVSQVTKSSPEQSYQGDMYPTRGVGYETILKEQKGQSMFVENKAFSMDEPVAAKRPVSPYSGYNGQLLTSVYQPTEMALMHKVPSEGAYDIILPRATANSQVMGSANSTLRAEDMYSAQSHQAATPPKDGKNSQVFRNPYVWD

Row | Binder | MFI.Max [7] | EC50 [8] | MFI.Max [8] | MFI.Max [9] | MFI.Max [10] | EC50 [11] | EC50 [12] | MFI.Max [12] | EC50 [14] | MFI.Max [14] | OD value [16] | other results
1 | GPRC5D×CD3 JNJ (anti-hGPRC5D×CD3 bispecific antibody built with the GPRC5D-targeting and CD3-targeting domains of Talquetamab, JNJ-64407564) (bispecific antibody, human IgG1, kappa, lambda, used as the positive control antibody throughout; also called Positive control antibody) heavy 1: QVQLVQSGAEVKKPGASVKVSCKASGYSFTGYTMNWVRQAPGQGLEWMGLINPYNSDTNYAQKLQGRVTMTTDTSTSTAYMELRSLRSDDTAVYYCARVALRVALDYWGQGTLVTVSSASTKGPSVFPLAPSSKSTSGGTAALGCLVKDYFPEPVTVSWNSGALTSGVHTFPAVLQSSGLYSLSSVVTVPSSSLGTQTYICNVNHKPSNTKVDKRVEPKSCDKTHTCPPCPAPPAAGPSVFLFPPKPKDTLMISRTPEVTCVVVDVSHEDPEVKFNWYVDGVEVHNAKTKPREEQYNSTYRVVSVLTVLHQDWLNGKEYKCKVSNKALAAPIEKTISKAKGQPREPQVYTLPPCREEMTKNQVSLWCLVKGFYPSDIAVEWESNGQPENNYKTTPPVLDSDGSFLLYSKLTVDKSRWQQGNVFSCSVMHEALHNHYTQKSLSLSPGK heavy 2: QTVVTQEPSLTVSPGGTVTLTCRSSTGAVTTSNYANWVQQKPGQAPRGLIGGTNKRAPGTPARFSGSLLGGKAALTLSGVQPEDEAEYYCALWYSNLWVFGGGTKLTVLSSASTKGPSVFPLAPSSKSTSGGTAALGCLVEDYFPEPVTVSWNSGALTSGVHTFPAVLQSSGLYSLSSVVTVPSSSLGTQTYICNVNHKPSNTKVDDRVEPKSCDKTHTCPPCPAPPAAGPSVFLFPPKPKDTLMISRTPEVTCVVVDVSHEDPEVKFNWYVDGVEVHNAKTKPREEQYNSTYRVVSVLTVLHQDWLNGKEYKCKVSNKALAAPIEKTISKAKGQPREPQVCTLPPSREEMTKNQVSLSCAVKGFYPSDIAVEWESNGQPENNYKTTPPVLDSDGSFFLVSRLTVDKSRWQQGNVFSCSVMHEALHNHYTQKSLSLSPGK light 1: DIQMTQSPSSLSASVGDRVTITCKASQNVATHVGWYQQKPGKAPKRLIYSASYRYSGVPSRFSGSGSGTEFTLTISNLQPEDFATYYCQQYNRYPYTFGQGTKLEIKRTVAAPSVFIFPPSDEQLKSGTASVVCLLNNFYPREAKVQWKVDNALQSGNSQESVTEQDSKDSTYSLSSTLTLSKADYEKHKVYACEVTHQGLSSPVTKSFNRGEC light 2: EVQLVESGGGLVQPGGSLRLSCAASGFTFNTYAMNWVRQAPGKGLEWVARIRSKYNNYATYYAASVKGRFTISRDDSKNSLYLQMNSLKTEDTAVYYCARHGNFGNSYVSWFAYWGQGTLVTVSSGQPKAAPSVTLFPPSSEELQANKATLVCLISDFYPGAVTVAWKADSSPVKAGVETTTPSKQSNNKYAASSYLSLTPEQWKSHRSYSCQVTHEGSTVEKTVAPTECS | – | – | – | – | – | – | – | – | – | – | – | EC50 [1]: 13.1 µg/mL; EC50 [2]: 14 µg/mL; EC50 [3]: 4.39 µg/mL; EC50 [4]: 3.27 µg/mL; FACS result [5]: 8.44; FACS result [6]: 8.72
2 | murine antibody 9D7 (A1 antibody) (antibody, V domains shown, Tested as hybridoma cell culture supernatant; also called murine anti-9D7) VH: QVQLKESGPGLVKPSQSLSLTCTVTGYSITSDYAWNWIRQFPGNKLEWMGYISYSGSATYNPSLKSRISITRDTSKNQFFLQLNSMTTEDTATYYCARGGIAGRGRWGAMDYWGQGTSVTVSS VL: DIVMTQAQKFMSTSVGDRVSVTCKASQNVGTNVAWYQNKPGQSPKALIYSASYRDSGVPDRFTGRGSGTDFTLTISNVQSEDLAEYFCQQYKSYPLTFGAGTKLELK | 554 MFI | 0.177 µg/mL | 705 MFI | 10.8 MFI | 506 MFI | 0.185 µg/mL | 0.183 µg/mL | 9380 MFI | 0.376 µg/mL | 5440 MFI | 0.541 OD | EC50 [7]: 0.104 µg/mL; EC50 [10]: 0.021 µg/mL; EC50 [13]: 0.279 µg/mL; EC50 [15]: 0.229 µg/mL
3 | murine antibody 26D1 (A2 antibody) (antibody, V domains shown, Tested as hybridoma cell culture supernatant; also called murine anti-26D1) VH: QVQLKQSGAELAGPGASVKMSCKASGYTFTSYTIQWIKQRPGQGLEWIGYIIPSSGYTNYNQKFKDKATLTADKSSNTAYMQLSSLTSEDSAVYYCANNYGNWGFTYWGQGTLVTVSA VL: DILMTQSQKFMSTSVRDRVSISCKASQNVGSAVTWYQQKPGQSPRLLIYSASNRYTGVPDRFTGSGSGTDFTLTISNVQSEDLADYFCQQYSNYPLTFGGGTKLEIK | – | – | – | – | – | 0.169 µg/mL | – | – | 12.3 µg/mL | – | 0.871 OD | EC50 [17]: 0.788 µg/mL
4 | murine antibody 6E97 (A4 antibody) (antibody, V domains shown, Tested as hybridoma cell culture supernatant; also called murine anti-6E97) VH: QVQLKESGPELVKPGASVKISCKASGYTFPYYVIHWVKQKPGQGLEWIGYINPYNDGTKYNEKFKGKAALTSDKSSSTAYMELSSLTSEDSAVYYCARGGVRRYFDYWGQGTTLTVSS VL: QIVLTQSPSSLSASLGERVSLTCRASQDIGSNLNWLQQEPDGTIKRLISATSSLDSGVPKRFSGSRSGSDYSLTISSLESEDFVDYFCLQYATFPYTFGGGTKLEIK | 931 MFI | 0.291 µg/mL | 1080 MFI | 62.4 MFI | 900 MFI | – | 0.111 µg/mL | 9610 MFI | 0.243 µg/mL | 6290 MFI | 1.55 OD | –

Source: patent US20260085114A1 (KYINNO BIOTECHNOLOGY, published 2026)
